Biological target: Sam68 N-terminal region (human, UniProt Q07666 1-96)
Experiment: single-molecule nanoaperture optical tweezers

Sam68 N-terminal region, sequence (Q07666 1-96): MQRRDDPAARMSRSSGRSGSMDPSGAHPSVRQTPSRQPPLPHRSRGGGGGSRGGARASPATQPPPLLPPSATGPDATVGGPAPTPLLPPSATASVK

Binder: GGGUGACACACUAGCUAUAGCAUUAAAAGACCGAGCAAGU (ssRNA) [G8.5 RNA]
- Kd: ~8 µM

From paper doi:10.1101/2025.05.26.656162
